The values below come from paper PMC3902040.

In this test the target is Factor H (CFH) (human) (UniProt P08603). Description: SPR. A general note: Surface plasmon resonance follows binding to a sensor surface in real time, without labels.
Chain of UniProt P08603 (P08603 19-1231): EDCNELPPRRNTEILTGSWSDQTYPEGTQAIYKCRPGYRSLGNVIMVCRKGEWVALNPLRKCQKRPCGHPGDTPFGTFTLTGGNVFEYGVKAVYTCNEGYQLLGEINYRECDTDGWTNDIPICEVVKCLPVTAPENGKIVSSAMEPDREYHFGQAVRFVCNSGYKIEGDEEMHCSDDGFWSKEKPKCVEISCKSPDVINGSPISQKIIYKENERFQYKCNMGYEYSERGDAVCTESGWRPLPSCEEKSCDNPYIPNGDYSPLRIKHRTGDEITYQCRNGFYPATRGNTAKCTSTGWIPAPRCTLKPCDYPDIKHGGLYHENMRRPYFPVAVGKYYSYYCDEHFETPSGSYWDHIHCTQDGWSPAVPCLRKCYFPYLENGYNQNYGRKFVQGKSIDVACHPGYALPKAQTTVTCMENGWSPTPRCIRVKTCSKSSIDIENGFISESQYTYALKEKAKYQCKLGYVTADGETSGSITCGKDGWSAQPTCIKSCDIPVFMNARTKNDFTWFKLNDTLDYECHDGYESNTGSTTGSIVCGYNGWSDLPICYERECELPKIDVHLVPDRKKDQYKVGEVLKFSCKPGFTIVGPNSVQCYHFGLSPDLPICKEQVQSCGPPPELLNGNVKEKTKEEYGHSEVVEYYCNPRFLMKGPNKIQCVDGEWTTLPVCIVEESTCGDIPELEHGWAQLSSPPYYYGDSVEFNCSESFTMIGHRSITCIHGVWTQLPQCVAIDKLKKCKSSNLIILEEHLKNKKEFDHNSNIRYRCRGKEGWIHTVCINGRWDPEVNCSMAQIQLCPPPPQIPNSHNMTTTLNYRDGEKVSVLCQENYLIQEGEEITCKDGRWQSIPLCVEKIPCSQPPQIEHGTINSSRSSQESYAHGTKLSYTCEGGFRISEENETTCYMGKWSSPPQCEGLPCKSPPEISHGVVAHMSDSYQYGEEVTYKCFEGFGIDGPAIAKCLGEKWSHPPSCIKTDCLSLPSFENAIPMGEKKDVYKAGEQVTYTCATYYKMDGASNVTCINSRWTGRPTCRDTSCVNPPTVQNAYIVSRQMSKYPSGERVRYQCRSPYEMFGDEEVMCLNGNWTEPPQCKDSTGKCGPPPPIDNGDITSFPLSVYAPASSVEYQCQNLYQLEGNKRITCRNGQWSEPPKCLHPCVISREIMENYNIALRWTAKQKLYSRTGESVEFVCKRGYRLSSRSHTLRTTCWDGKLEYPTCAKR

As to “155Q C3 protein (C3 K155Q variant, rs147859257), methylamine-treated C3 (MA) (natural protein)”, the reduced binding against 155K C3 (percent) worked out at 60%.
